Assays:
[1] = molecular target: T1, IL-2Rβγc (species not stated); assay: biolayer interferometry
T1 chain 1: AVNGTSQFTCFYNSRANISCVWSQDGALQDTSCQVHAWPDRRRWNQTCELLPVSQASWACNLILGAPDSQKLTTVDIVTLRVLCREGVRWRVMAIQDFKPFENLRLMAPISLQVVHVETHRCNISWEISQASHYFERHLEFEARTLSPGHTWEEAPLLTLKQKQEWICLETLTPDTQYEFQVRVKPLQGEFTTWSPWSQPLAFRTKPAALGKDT
T1 chain 2: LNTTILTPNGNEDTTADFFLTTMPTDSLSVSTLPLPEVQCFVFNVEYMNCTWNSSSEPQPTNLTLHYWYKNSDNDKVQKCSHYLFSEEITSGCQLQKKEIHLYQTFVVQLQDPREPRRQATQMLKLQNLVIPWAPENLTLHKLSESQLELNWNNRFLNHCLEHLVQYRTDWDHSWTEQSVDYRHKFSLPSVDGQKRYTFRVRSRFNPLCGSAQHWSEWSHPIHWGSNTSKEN

[2] = molecular target: T2, mouse IL-2 receptor βγc heterodimer (mIL-2Rβγc), soluble (mouse, UniProt P16297 27-240; P34902 23-263, biotin on the C-terminal biotin acceptor peptide); assay: affinity maturation by yeast display for human and mouse IL-2Rβνc
T2 construct: extracellular domain; also called MmIL-2Rβγc; mIL-2Rβνc
T2 sequence 1: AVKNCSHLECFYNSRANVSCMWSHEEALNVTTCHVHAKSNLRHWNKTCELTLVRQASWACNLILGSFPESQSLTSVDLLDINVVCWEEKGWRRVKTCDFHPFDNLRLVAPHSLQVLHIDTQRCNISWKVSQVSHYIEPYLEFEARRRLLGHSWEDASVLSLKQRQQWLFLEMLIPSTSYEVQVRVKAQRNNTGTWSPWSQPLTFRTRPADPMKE
T2 sequence 2: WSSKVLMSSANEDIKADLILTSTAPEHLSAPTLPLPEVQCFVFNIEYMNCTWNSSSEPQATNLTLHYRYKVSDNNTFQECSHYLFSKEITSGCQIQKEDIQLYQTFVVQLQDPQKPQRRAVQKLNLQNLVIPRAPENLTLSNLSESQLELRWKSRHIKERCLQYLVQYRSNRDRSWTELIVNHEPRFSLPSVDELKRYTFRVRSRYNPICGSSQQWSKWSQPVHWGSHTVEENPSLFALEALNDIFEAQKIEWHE
Method: (§1) The vector was linearized by 100 fold overdigestion by NdeI and XhoI (New England Biolabs) and then purified by gel extraction (Qiagen). The genes included 50 bases of overlap with the vector on both the 5′ and 3′ ends such that homologous recombination would place the genes in frame between the AGA2 gene and the myc tag on the vector. Yeast were grown in C-Trp-Ura media prior to induction in SGCAA media as previously described. […] After approximately 30 minutes, cells were washed again in chilled buffer, and then incubated on ice for 5 minutes with FITC-conjugated anti-c-Myc antibody (1 uL per 3×10⁶ cells) and streptavidin-phycoerythrin (1 uL per 100 uL volume of yeast). Yeast were then washed and counted by flow cytometry (Accuri C6) or sorted by FACS (Sony SH800).

[3] = molecular target: T3, human IL-2 receptor βγc heterodimer (hIL-2Rβγc), soluble (human, UniProt P14784 27-240; P31785 23-254, biotin on the C-terminal biotin acceptor peptide); assay: as above
T3 construct: also called HsIL-2Rβγc; hIL-2Rβνc
T3 sequence 1: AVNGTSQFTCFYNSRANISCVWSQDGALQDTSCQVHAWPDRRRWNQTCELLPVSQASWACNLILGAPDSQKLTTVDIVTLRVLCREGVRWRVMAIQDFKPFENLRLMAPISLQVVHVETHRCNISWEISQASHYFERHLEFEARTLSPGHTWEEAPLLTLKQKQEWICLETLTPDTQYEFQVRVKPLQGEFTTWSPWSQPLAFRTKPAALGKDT
T3 sequence 2: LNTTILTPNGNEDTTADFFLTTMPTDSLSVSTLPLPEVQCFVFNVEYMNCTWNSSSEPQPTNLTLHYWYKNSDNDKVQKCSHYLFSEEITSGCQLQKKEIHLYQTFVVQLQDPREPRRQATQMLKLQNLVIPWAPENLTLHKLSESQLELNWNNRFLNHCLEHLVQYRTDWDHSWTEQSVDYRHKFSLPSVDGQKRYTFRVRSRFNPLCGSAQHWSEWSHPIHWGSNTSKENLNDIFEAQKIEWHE
Method: as §1

[4] = molecular target: T4, human IL-2 receptor β subunit (hIL-2Rβ) (human, UniProt P14784 27-240, biotin on the C-terminal biotin acceptor peptide); assay: SPR, equilibrium titration; biotinylated IL-2Rβ on streptavidin chip
T4 construct: Biotinylated and immobilised on streptavidin; also called HsIL-2Rβ; human IL-2Rβ
T4 sequence: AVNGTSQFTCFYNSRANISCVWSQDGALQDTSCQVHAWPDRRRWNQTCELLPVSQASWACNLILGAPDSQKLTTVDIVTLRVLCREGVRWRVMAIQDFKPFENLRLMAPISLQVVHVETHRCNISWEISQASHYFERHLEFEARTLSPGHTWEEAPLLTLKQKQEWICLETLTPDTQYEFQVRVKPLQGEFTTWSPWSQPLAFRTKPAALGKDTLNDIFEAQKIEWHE
Method: (§2) Less than 100 response units (RU) of each ligand was immobilized to minimize mass transfer effects. […] Surface regeneration for all interactions was conducted using 15 s exposure to 1 M MgCl2 in 10 mM sodium acetate pH 5.5. SPR experiments were carried out in HBS-P+ buffer (GE Healthcare) supplemented with 0.2% bovine serum albumin (BSA) at 25° C. and all binding studies were performed at a flow rate of […] to prevent analyte rebinding. Data was visualized and processed using the Biacore T100 evaluation software version 2.0 (GE Healthcare). Equilibrium titration curve fitting and equilibrium binding dissociation (KD) value determination was implemented using GraphPad Prism assuming all binding interactions to be first order. Biolayer interferometry: binding data were collected in a Octet RED96 (ForteBio, Menlo Park, Calif.) and processed using the instrument's integrated software using a 1:1 binding model. […] Analyte proteins were diluted from concentrated stocks into binding buffer. After baseline measurement in binding buffer alone, the binding kinetics were monitored by dipping the biosensors in wells containing 100 nM of the designed protein (association) and then dipping the sensors back into baseline wells (dissociation).

[5] = molecular target: T5, human IL-2Rβγc on human cells (YT-1 NK cells) (human, UniProt P14784 27-551; P31785 23-369); assay: cell-based or functional assay
T5 sequence (looked up) 1: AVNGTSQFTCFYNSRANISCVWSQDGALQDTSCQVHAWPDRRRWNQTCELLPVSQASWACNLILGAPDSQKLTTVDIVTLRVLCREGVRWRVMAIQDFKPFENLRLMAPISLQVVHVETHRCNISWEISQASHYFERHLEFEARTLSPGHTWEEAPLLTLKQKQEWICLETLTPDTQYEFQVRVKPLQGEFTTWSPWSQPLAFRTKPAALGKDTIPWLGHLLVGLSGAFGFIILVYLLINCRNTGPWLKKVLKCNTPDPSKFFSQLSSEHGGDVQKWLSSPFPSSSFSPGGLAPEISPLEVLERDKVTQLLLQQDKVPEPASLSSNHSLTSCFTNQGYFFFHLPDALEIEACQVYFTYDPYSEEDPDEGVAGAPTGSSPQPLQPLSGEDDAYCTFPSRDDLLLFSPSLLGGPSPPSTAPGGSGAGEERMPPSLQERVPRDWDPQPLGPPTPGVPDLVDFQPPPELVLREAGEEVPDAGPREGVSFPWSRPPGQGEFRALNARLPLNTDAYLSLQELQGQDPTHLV
T5 sequence (looked up) 2: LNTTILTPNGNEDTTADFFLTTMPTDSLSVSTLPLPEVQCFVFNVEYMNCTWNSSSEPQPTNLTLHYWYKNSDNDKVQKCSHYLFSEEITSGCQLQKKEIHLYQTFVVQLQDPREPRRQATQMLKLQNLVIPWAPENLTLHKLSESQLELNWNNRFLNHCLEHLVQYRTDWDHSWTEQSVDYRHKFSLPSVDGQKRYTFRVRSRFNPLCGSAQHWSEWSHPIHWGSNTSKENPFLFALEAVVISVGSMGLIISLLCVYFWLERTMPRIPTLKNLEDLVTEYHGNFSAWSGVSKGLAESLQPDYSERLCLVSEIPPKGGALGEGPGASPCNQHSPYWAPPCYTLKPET

[6] = molecular target: T3, human IL-2 receptor βγc heterodimer …; assay: SPR, equilibrium titration; IL-2Rγ on streptavidin chip, saturating IL-2Rβ in solution
Method: as §2

[7] = molecular target: T6, fluorescently labeled chimeric hIL-2Rβγc (human, UniProt P14784 27-240; P31785 23-254); assay: yeast display, flow cytometry
T6 construct: How beta and gamma are joined and labeled is not described; also called fluorescently-tagged beta-gamma chimeric IL-2 receptor; chimeric ILRβγc
T6 sequence (looked up) 1: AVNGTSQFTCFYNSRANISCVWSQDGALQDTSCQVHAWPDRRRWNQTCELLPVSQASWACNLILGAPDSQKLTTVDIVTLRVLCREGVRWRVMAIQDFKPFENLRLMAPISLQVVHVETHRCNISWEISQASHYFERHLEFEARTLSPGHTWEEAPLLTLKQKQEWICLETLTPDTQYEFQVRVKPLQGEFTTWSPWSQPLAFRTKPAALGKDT
T6 sequence (looked up) 2: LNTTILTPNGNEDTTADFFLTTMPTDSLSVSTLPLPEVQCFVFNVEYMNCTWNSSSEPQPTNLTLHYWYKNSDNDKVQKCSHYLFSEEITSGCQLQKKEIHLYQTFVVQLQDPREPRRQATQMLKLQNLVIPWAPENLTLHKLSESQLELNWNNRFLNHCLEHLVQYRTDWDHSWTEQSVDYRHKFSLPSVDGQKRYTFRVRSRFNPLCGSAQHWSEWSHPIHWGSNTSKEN

| binding result [2] | binding result [3] | other results | Binder |
| --- | --- | --- | --- |
|  |  | Kd [1]: ~1.3 nM | Neoleukin-2/15 internal disulfide variant (disulfide between residues 38 and 75) (designed binder, disulfide bond between the cysteines at residues 38 and 75, also called internal disulfide-staple) PKKKIQLHAEHALYDALMILNIVKTNSPPAEEKLEDYCFNFELILEEIARLFESGDQKDEAEKAKRMKEWMKRICTTASEDEQEEMANAIITILQSWIFS |
| binds | binds |  | G2_neo2_40_1F_seq27_S24 (designed binder) TNKKAQLHAEFALYDALMLLNLSSESNERLNDIITWLQSIIFTGTYDPDMVKEAVKLADEIEDEMRKRKIDTEDYVVNLRYILQELA |
| binds | binds |  | G2_neo2_40_1F_seq27_S18 (designed binder) TNKEAQLHAEFALYDALMLLNLSSESNERLNRIITWLQSIIFYETYDPDMVKEAVKLADEIEDEMRKRKIDTEDYVVNLRLILQELA |
| binds | binds |  | G2_neo2_40_1F_seq27_S22 (designed binder) TKKDAELLAEFALYDALMLLNLSSESNERLNEIITWLQSIIFYGTYDPDMVKEAVKLADEIEDEMRKRGIDTEDYVSNLRLILQELA |
|  |  | Kd [1]: ~1.8 nM | Neoleukin-2/15 terminal disulfide variant (CNSN and NFQC added at the termini) (designed binder, disulfide bond between the N-terminal and the C-terminal cysteine, also called external disulfide-staple) CNSNKKKIQLHAEHALYDALMILNIVKTNSPPAEEKLEDYAFNFELILEEIARLFESGDQKDEAEKAKRMKEWMKRIKTTASEDEQEEMANAIITILQSWIFNFQC |
| binds | binds |  | G2_neo2_40_1F_seq29_S8 (designed binder) EDYYSNLKLILEELAREMERNGLSDKAEEWRQWKKIVERIRQIRSNNSDLNEAKELLNRLITYIQSQIFEVLEGVGETDQEKKEESWKKWELHLEHALLDVLMLLND |
| binds | binds |  | G2_neo2_40_1F_seq29_S7 (designed binder) EDYYSNLKVILEELAREMERNGLSDKAEEWRQWKKIVERIRQIRSNNSDLNEAKELLNELITYIQSQIFEVIEREGETDQEKKEESWKKWELHLEHALLDVLMLLND |
| binds | binds |  | G2_neo2_40_1F_seq29_S6 (designed binder) EDYYSNLKLILEELAREMERNGLSDKAEEWRQWKKIVERIRQIRSNNSDLNEAKELLNRLITYIQSQIFEVLHGVGETDQEKKEESWKKWDLLLEHALLDVLMLLND |
|  |  | Kd [4]: 2860 nM; EC50 (CD25-) pSTAT5p, human NK (YT, CD25-) cells [5]: 0.21 nM; Kd [6]: 533 nM | G1_neo2_43 (designed binder, Single-disulfide stapled variation; In yeast display between Aga2 and a myc tag; also called G1_ne02_43) STKKIQLQLEHALLDVQMALNRSPEPNESLNRMITWLQSCISTGKCDLDNAQEMAKEAEKIRKEMEKRGIDVRDLISNIIVILLELS |
|  |  | binding result [7]: no binding (tested: 2 nM) | G1_neo2_44 (designed binder) STKKIQLQLEHALLDVQMALNRSPEPNESLNRMITWLQSWISTGKIDLDNAQEMCKEAEKIRKEMEKRGIDVRDLISNICVILLELS |
|  |  | Kd [4]: 1460 nM; EC50 (CD25-) pSTAT5p, human NK (YT, CD25-) cells [5]: 0.14 nM; Kd [6]: 260 nM | G1_neo2_40 (designed binder, also called G1_ne02_40) STKKLQLQAEHALLDAQMMLNRSPEPNEKLNRIITTMQSWISTGKIDLDGAKELAKEVEELRQEAEKRGIDVRDLASNLKVILLELA |
|  |  | Kd [4]: 721 nM; EC50 (CD25-) pSTAT5p, human NK (YT, CD25-) cells [5]: 0.07 nM; Kd [6]: 187 nM | G1_neo2_41 (designed binder, Single-disulfide stapled variation; In yeast display between Aga2 and a myc tag; also called G1_ne02_41) STKKLQLQAEHALLDAQMMLNRSPEPNEKLNRIITTMQSCISTGKCDLDGAKELAKEVEELRQEAEKRGIDVRDLASNLKVILLELA |
| binds | binds |  | G2_neo2_40_1F_seq36_S12 (designed binder) PKKKIQLLAEHALFDLLMILNIVKTNSQNAEEKLEDYAYNAGVILEEIARLFESGDQKDEAEKAKRMKEWMKRIKDTASEDEQEEMANEIITILQSWNFS |

Reference: US20200339648A1 (University of Washington, published 2020)
